# Measurements taken from publication PMC11890025.
# Tested on: SaAREB6-His (Santalum album)
# Assay: MST
# Conditions: MST: 20 nM labelled SaAREB6, 150 mM NaCl, 20 mM Tris-HCl pH 8.0, 25 C; EMSA: LightShift Chemiluminescent kit, buffer not stated
substance,measurement,value
SaCYP736A167 promoter R1 (MST),Kd,4.81 µM
SaCYP736A167 promoter R2 (MST),Kd,24.8 µM
